Reference: the supplement of paper PMC10065799, “High-throughput profiling of sequence recognition by tyrosine kinases and SH2 domains using bacterial peptide display” (eLife, 2023)

target: Hck (UniProt P08631); test: phosphorylation enrichment, bacterial display (enrichment ratio); higher = better substrate or ligand; peptides without Tyr show the background
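Note: 11-residue human phosphosite peptides and single-mutation variants displayed on the E. coli surface, counted by deep sequencing, each peptide's frequency after selection divided by its frequency in the unselected input library; frequency after pTyr selection over input frequency; kinase dosed for 20-30% of maximal phosphorylation in three min.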

Hck, sequence (P08631 whole entry, looked up): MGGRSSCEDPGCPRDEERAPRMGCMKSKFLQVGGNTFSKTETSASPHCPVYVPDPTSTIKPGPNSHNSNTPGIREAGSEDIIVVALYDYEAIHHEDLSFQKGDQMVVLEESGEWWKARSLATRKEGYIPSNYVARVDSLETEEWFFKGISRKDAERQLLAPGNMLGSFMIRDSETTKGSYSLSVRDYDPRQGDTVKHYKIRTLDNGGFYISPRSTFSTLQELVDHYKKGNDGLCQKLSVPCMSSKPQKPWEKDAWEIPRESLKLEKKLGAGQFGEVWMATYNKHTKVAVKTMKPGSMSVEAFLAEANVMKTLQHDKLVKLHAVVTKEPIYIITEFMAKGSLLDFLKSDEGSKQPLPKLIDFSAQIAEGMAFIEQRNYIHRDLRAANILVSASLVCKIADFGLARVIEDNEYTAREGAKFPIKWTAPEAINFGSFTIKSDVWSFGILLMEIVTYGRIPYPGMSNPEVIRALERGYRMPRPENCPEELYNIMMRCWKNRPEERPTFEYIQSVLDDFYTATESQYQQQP

Sequence | phosphorylation enrichment
LTEEKYELKEG [TREM1_Y29] | 0.782
SAPPSYEETVA [LITAF_Y23] | 0.569
SRIWVYNHFRW [BRCA2_Y2621_YF] | 0.477
LLASGYDSPIN [ABLIM1_Y638_R637G] | 0.783
THLARYSDELR [APOA1_Y190_P189R] | 0.4
DDKEFYSVHNK [MET_Y1235_Y1230D_YF] | 0.453
MFNPYYGLFEY [NEDD4L_Y680] | 7.23
RWGQKYMTAVV [CYBA_Y72] | 0.609
PLLEYYWDIFT [CDAN1_Y713_R714W] | 0.79
KLFYIYTSGTT [SLC27A4_Y245] | 0.506
ASKEPYFVHCI [MYO1D_Y585_R588H_YF] | 0.475
TEYIQYMRRKN [MAX_Y73] | 0.7
RRETPYGGGGG [FUS_Y526_R524T] | 0.604
YHLLPYTVRAM [PARS2_Y93] | 8.34
DVFLKHLNFAT [PDE6B_Y212_Y212H] | 0.478
DVLEFCNSKKT [PAK1_Y131_Y131C] | 0.401

target: FGFR1 (UniProt P11362); test: as above
Sequence (P11362 whole entry, looked up): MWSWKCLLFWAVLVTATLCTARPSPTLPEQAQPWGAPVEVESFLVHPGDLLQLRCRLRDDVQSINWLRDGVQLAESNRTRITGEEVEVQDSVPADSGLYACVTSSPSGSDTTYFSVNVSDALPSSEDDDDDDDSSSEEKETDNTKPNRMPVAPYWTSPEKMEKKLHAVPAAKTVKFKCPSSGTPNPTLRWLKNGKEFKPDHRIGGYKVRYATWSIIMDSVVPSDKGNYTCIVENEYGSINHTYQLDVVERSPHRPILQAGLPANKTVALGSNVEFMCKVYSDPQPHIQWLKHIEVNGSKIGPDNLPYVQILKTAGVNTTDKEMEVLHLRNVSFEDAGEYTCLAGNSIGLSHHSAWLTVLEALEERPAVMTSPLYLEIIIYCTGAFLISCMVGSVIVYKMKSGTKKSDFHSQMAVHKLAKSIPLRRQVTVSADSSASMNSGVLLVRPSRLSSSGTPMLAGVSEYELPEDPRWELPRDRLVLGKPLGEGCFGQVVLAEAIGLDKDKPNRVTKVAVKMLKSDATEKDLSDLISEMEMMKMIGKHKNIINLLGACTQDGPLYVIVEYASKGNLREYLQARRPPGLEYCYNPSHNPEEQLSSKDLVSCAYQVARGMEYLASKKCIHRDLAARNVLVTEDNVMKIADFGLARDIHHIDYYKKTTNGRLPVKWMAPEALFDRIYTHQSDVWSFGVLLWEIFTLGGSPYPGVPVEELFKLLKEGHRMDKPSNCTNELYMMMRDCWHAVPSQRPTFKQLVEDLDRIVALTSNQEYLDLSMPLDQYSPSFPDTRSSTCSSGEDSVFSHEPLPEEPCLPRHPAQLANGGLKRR

Sequence | phosphorylation enrichment
LTEEKYELKEG [TREM1_Y29] | 0.711
SAPPSYEETVA [LITAF_Y23] | 0.65
SRIWVYNHFRW [BRCA2_Y2621_YF] | 0.435
LLASGYDSPIN [ABLIM1_Y638_R637G] | 0.859
THLARYSDELR [APOA1_Y190_P189R] | 0.437
DDKEFYSVHNK [MET_Y1235_Y1230D_YF] | 0.525
MFNPYYGLFEY [NEDD4L_Y680] | 8.53
RWGQKYMTAVV [CYBA_Y72] | 0.654
PLLEYYWDIFT [CDAN1_Y713_R714W] | 8.76
KLFYIYTSGTT [SLC27A4_Y245] | 0.449
ASKEPYFVHCI [MYO1D_Y585_R588H_YF] | 0.583
TEYIQYMRRKN [MAX_Y73] | 0.7
RRETPYGGGGG [FUS_Y526_R524T] | 0.957
YHLLPYTVRAM [PARS2_Y93] | 16.5
DVFLKHLNFAT [PDE6B_Y212_Y212H] | 0.483
DVLEFCNSKKT [PAK1_Y131_Y131C] | 0.428

test system: c-Src; test: as above

Sequence | phosphorylation enrichment
LTEEKYELKEG [TREM1_Y29] | 0.52
SAPPSYEETVA [LITAF_Y23] | 0.398
SRIWVYNHFRW [BRCA2_Y2621_YF] | 0.479
LLASGYDSPIN [ABLIM1_Y638_R637G] | 0.556
THLARYSDELR [APOA1_Y190_P189R] | 0.397
DDKEFYSVHNK [MET_Y1235_Y1230D_YF] | 0.531
MFNPYYGLFEY [NEDD4L_Y680] | 5.76
RWGQKYMTAVV [CYBA_Y72] | 0.312
PLLEYYWDIFT [CDAN1_Y713_R714W] | 1.19
KLFYIYTSGTT [SLC27A4_Y245] | 0.575
ASKEPYFVHCI [MYO1D_Y585_R588H_YF] | 0.523
TEYIQYMRRKN [MAX_Y73] | 0.491
RRETPYGGGGG [FUS_Y526_R524T] | 0.628
YHLLPYTVRAM [PARS2_Y93] | 3.84
DVFLKHLNFAT [PDE6B_Y212_Y212H] | 0.374
DVLEFCNSKKT [PAK1_Y131_Y131C] | 0.535

target: FGFR3 (UniProt P22607); test: as above
Sequence (P22607 whole entry, looked up): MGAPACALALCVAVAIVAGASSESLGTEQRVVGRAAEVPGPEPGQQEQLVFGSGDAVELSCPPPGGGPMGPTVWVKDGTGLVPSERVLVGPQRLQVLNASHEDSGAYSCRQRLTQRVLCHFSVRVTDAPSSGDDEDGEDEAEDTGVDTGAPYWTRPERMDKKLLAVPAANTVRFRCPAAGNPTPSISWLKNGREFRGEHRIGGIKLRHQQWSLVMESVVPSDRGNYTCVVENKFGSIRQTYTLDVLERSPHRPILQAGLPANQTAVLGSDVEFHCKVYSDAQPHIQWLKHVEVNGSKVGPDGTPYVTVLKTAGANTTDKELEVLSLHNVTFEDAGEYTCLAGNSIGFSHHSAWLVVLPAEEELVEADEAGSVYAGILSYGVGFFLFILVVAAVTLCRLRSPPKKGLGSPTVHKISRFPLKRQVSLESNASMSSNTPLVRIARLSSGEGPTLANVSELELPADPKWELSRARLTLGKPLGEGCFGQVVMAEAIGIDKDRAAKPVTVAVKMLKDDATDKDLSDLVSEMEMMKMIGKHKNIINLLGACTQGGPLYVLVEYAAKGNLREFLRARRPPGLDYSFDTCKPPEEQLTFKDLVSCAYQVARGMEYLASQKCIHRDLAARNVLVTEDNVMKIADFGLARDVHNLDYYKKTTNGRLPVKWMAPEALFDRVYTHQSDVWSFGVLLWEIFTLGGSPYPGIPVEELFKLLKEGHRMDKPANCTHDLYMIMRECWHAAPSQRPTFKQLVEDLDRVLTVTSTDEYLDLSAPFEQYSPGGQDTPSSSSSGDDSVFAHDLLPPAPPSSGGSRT

Sequence | phosphorylation enrichment
LTEEKYELKEG [TREM1_Y29] | 0.979
SAPPSYEETVA [LITAF_Y23] | 0.672
SRIWVYNHFRW [BRCA2_Y2621_YF] | 0.78
LLASGYDSPIN [ABLIM1_Y638_R637G] | 1.09
THLARYSDELR [APOA1_Y190_P189R] | 0.449
DDKEFYSVHNK [MET_Y1235_Y1230D_YF] | 0.571
MFNPYYGLFEY [NEDD4L_Y680] | 7.3
RWGQKYMTAVV [CYBA_Y72] | 0.884
PLLEYYWDIFT [CDAN1_Y713_R714W] | 7.06
KLFYIYTSGTT [SLC27A4_Y245] | 0.755
ASKEPYFVHCI [MYO1D_Y585_R588H_YF] | 0.882
TEYIQYMRRKN [MAX_Y73] | 0.609
RRETPYGGGGG [FUS_Y526_R524T] | 1.07
YHLLPYTVRAM [PARS2_Y93] | 13.9
DVFLKHLNFAT [PDE6B_Y212_Y212H] | 0.66
DVLEFCNSKKT [PAK1_Y131_Y131C] | 0.581

test system: c-Abl (mouse); test: as above

Sequence | phosphorylation enrichment
LTEEKYELKEG [TREM1_Y29] | 0.785
SAPPSYEETVA [LITAF_Y23] | 0.727
SRIWVYNHFRW [BRCA2_Y2621_YF] | 0.853
LLASGYDSPIN [ABLIM1_Y638_R637G] | 1.03
THLARYSDELR [APOA1_Y190_P189R] | 0.405
DDKEFYSVHNK [MET_Y1235_Y1230D_YF] | 0.828
MFNPYYGLFEY [NEDD4L_Y680] | 5.87
RWGQKYMTAVV [CYBA_Y72] | 0.328
PLLEYYWDIFT [CDAN1_Y713_R714W] | 1.61
KLFYIYTSGTT [SLC27A4_Y245] | 0.767
ASKEPYFVHCI [MYO1D_Y585_R588H_YF] | 0.611
TEYIQYMRRKN [MAX_Y73] | 0.546
RRETPYGGGGG [FUS_Y526_R524T] | 0.487
YHLLPYTVRAM [PARS2_Y93] | 24.6
DVFLKHLNFAT [PDE6B_Y212_Y212H] | 0.552
DVLEFCNSKKT [PAK1_Y131_Y131C] | 0.532

test system: Fer (mouse); test: as above

Sequence | phosphorylation enrichment
LTEEKYELKEG [TREM1_Y29] | 0.593
SAPPSYEETVA [LITAF_Y23] | 0.531
SRIWVYNHFRW [BRCA2_Y2621_YF] | 0.413
LLASGYDSPIN [ABLIM1_Y638_R637G] | 0.423
THLARYSDELR [APOA1_Y190_P189R] | 0.616
DDKEFYSVHNK [MET_Y1235_Y1230D_YF] | 0.47
MFNPYYGLFEY [NEDD4L_Y680] | 7.76
RWGQKYMTAVV [CYBA_Y72] | 0.568
PLLEYYWDIFT [CDAN1_Y713_R714W] | 0.906
KLFYIYTSGTT [SLC27A4_Y245] | 0.556
ASKEPYFVHCI [MYO1D_Y585_R588H_YF] | 0.56
TEYIQYMRRKN [MAX_Y73] | 0.523
RRETPYGGGGG [FUS_Y526_R524T] | 0.438
YHLLPYTVRAM [PARS2_Y93] | 0.595
DVFLKHLNFAT [PDE6B_Y212_Y212H] | 0.414
DVLEFCNSKKT [PAK1_Y131_Y131C] | 0.436

target: Jak2 (UniProt O60674); test: as above
Sequence (O60674 whole entry, looked up): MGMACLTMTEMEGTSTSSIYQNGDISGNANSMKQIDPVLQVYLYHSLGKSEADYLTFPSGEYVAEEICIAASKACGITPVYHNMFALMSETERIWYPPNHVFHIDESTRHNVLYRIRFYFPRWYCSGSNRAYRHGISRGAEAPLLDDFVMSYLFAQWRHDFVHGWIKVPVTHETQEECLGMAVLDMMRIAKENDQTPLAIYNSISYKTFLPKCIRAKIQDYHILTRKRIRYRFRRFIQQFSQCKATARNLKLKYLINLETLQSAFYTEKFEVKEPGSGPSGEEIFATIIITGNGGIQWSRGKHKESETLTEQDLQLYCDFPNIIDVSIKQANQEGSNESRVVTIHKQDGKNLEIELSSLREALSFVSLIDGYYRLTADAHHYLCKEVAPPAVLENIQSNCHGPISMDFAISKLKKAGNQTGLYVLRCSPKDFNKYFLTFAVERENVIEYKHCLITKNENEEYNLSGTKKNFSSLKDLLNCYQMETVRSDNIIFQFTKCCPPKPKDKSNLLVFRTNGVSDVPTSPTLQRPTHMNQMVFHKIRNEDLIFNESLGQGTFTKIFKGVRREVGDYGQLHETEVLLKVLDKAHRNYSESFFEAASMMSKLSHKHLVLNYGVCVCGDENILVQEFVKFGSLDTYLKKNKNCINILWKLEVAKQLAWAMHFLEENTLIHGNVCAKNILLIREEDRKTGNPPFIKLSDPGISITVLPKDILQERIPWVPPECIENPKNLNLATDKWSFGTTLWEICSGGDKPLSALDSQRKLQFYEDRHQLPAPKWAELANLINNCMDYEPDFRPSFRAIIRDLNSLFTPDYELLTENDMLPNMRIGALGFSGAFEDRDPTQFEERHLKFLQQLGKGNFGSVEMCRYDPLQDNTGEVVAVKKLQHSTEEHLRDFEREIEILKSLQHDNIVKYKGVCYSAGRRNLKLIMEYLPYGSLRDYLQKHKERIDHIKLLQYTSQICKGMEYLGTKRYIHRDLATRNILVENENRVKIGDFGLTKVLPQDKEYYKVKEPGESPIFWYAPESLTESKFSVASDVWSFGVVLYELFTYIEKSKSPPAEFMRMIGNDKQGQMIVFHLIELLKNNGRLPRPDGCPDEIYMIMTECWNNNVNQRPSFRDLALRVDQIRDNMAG

Sequence | phosphorylation enrichment
LTEEKYELKEG [TREM1_Y29] | 1.65
SAPPSYEETVA [LITAF_Y23] | 0.828
SRIWVYNHFRW [BRCA2_Y2621_YF] | 1.13
LLASGYDSPIN [ABLIM1_Y638_R637G] | 0.737
THLARYSDELR [APOA1_Y190_P189R] | 0.543
DDKEFYSVHNK [MET_Y1235_Y1230D_YF] | 0.854
MFNPYYGLFEY [NEDD4L_Y680] | 7.13
RWGQKYMTAVV [CYBA_Y72] | 0.409
PLLEYYWDIFT [CDAN1_Y713_R714W] | 2.65
KLFYIYTSGTT [SLC27A4_Y245] | 1.51
ASKEPYFVHCI [MYO1D_Y585_R588H_YF] | 0.675
TEYIQYMRRKN [MAX_Y73] | 0.718
RRETPYGGGGG [FUS_Y526_R524T] | 0.551
YHLLPYTVRAM [PARS2_Y93] | 6.87
DVFLKHLNFAT [PDE6B_Y212_Y212H] | 0.799
DVLEFCNSKKT [PAK1_Y131_Y131C] | 0.806

target: EPHB2 (UniProt P29323); test: as above
Sequence (P29323 whole entry, looked up): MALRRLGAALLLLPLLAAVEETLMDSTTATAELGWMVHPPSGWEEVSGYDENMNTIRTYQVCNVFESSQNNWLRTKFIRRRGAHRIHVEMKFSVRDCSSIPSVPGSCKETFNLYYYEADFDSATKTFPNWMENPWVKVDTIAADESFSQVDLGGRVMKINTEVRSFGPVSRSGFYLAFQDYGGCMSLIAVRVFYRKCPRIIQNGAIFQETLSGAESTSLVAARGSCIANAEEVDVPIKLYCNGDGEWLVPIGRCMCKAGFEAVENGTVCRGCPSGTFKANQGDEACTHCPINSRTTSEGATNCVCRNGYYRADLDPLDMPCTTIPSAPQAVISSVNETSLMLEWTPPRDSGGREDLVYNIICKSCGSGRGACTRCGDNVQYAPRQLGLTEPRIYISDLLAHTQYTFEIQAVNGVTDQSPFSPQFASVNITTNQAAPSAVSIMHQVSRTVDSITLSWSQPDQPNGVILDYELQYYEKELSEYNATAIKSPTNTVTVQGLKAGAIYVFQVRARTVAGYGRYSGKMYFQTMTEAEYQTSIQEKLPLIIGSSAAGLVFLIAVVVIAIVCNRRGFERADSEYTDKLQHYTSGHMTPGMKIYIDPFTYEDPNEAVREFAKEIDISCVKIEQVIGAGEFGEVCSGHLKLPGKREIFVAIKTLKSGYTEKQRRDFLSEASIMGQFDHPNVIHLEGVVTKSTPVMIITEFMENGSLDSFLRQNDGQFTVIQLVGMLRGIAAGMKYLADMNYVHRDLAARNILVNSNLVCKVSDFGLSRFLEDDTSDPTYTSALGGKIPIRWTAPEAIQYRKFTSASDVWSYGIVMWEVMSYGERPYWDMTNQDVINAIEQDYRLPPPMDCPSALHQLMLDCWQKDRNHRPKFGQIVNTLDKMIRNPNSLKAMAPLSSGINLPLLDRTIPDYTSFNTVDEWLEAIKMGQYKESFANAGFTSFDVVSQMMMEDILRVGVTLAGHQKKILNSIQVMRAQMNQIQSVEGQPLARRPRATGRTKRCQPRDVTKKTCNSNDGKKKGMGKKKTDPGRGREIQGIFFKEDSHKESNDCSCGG

Sequence | phosphorylation enrichment
LTEEKYELKEG [TREM1_Y29] | 0.875
SAPPSYEETVA [LITAF_Y23] | 0.636
SRIWVYNHFRW [BRCA2_Y2621_YF] | 0.612
LLASGYDSPIN [ABLIM1_Y638_R637G] | 0.825
THLARYSDELR [APOA1_Y190_P189R] | 0.412
DDKEFYSVHNK [MET_Y1235_Y1230D_YF] | 0.527
MFNPYYGLFEY [NEDD4L_Y680] | 9.35
RWGQKYMTAVV [CYBA_Y72] | 0.783
PLLEYYWDIFT [CDAN1_Y713_R714W] | 1.28
KLFYIYTSGTT [SLC27A4_Y245] | 0.727
ASKEPYFVHCI [MYO1D_Y585_R588H_YF] | 0.481
TEYIQYMRRKN [MAX_Y73] | 0.528
RRETPYGGGGG [FUS_Y526_R524T] | 0.62
YHLLPYTVRAM [PARS2_Y93] | 1.47
DVFLKHLNFAT [PDE6B_Y212_Y212H] | 0.545
DVLEFCNSKKT [PAK1_Y131_Y131C] | 0.483
